According to patent publication US20260022160A1 (AFFYXELL THERAPEUTICS, published 2026):

T1: human CD40L (human, UniProt P29965 113-261, limits assumed)
T1 construct: also called hCD40L; huCD40L
T1 sequence (looked up): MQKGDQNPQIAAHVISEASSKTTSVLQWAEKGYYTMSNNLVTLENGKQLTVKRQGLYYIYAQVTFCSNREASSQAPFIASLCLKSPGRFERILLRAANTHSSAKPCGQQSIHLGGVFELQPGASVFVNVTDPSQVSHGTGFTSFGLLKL

T2: human CD40L expressed on HEK293 cells (human, UniProt P29965 1-261)
T2 construct: whole, on cells; also called hCD40L-HEK293 cells; hCD40L-HEK-293 cells (Crown Biosciences, C2041)
T2 sequence (looked up): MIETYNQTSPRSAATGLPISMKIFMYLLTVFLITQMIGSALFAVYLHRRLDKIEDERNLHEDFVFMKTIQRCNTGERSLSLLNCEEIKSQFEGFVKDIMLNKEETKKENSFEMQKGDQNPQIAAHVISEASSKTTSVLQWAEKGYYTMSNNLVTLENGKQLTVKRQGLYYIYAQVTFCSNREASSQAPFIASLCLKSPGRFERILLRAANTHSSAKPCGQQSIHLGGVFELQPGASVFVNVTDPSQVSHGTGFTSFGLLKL


How the values were obtained:
human CD40L [1] = target: T1, human CD40L; assay: direct binding ELISA on plate-coated hCD40L (5 ug/ml), detection biotinylated anti-cystatin A antibody + polyHRP-streptavidin, OD 450-630 nm
Description: Plates were washed 2 times with 150 μl of washing buffer (PBS, Tween 20 0.1%) with a plate washer and saturated with Casein 5% (Sigma) in PBS for 90 minutes at room temperature (25±1° C.). For binding, each DAW01 clone and rhCD40 Fc were added to the plate, starting from 1 μM, 1 in 3 and 300 nM, 1 in 3 respectively. Plates were washed 3 times as described previously. […] Then, cystatin A biotinylated polyclonal antibody (BAF1407) was diluted to a concentration of 0.05 μg/ml in dilution buffer (PBS, 1% casein, 0.01% Tween 20) and the plate was incubated for 90 minutes at room temperature (25±1° C.). PolyHRP-streptavidin was then diluted in dilution buffer and the plates were incubated for 90 minutes at room temperature (25±1° C.). The plates were then washed 3 times as described previously, and the substrate (TMB, Pierce Thermo-Scientific) was added to the plates for 10 minutes. The reaction was stopped using an acidic solution, and plates were read at 450-630 nm.

[2] = target: T2, human CD40L expressed on HEK293 cells; assay: flow cytometry, clone at 1 uM on hCD40L-HEK293 cells (hatched), HEK-293 negative cells as control (open), detection anti-Cystatin A + A488 anti-goat
Description: The cells were resuspended in PBS and 200,000 cells per well were dispatched in a round bottom 96 well plate. Cells were washed with PBS. The stefin A protein variant and controls were diluted in staining buffer containing 1% BSA, 0.01% Sodium Azide (NaN3), 2 mM EDTA in DPBS in duplicate and added on cells for staining for approximately 60 min at 4±1° c. Cells were washed and the secondary anti-Cystatin A (R&D, AF1407) was diluted 0.2 mg/ml in staining buffer and added on cells for staining for approximately 45 min at 4±1° c. Cells were washed again and the detection antibody A488 anti-goat (ThermoFisher, A21467) was diluted 1:500 in staining buffer and added to the cells for staining (approximately 30 min at 4±1° C.). Finally, the cells were washed and live and dead cells were stained using L/D stain Zombie Yellow (Biolegend, 423103) diluted in staining buffer for 10 min at 4±1° C. Cells were washed again and fixation buffer (R&D) was added to each well for 10 min at 4±1° C. then PBS with EDTA (Lonza) was added prior reading the plate on the flow cytometer (Guava 12 HT, Millipore). Dead cells were excluded, and the fluorescent green channel (488 nm/525/30) was acquired. Results were analyzed using Incyte and data were plotted using GraphPad.

human CD40L [3] = target: T1, human CD40L; assay: BIACORE (SPR) on hCD40L, kinetic fit; immobilised partner not stated
human CD40L [4] = target: T1, human CD40L; assay: cell-based or functional assay
human CD40L [5] = target: T1, human CD40L; assay: cell-based or functional assay; remark: listed apart in the source
human CD40L [6] = target: T1, human CD40L; assay: competitive ELISA: hCD40L (1 nM) premixed with the binder and added to plate-coated rhCD40 Fc; bound hCD40L detected with biotinylated anti-hCD40L polyclonal antibody
Description: To evaluate the avidity of the different formats, a CD40L competitive ELISA was performed. Briefly, the plates were coated with rhCD40 Fc at 1 μg/ml and incubated overnight at 4° C. The plates were washed twice with 150 μl of washing buffer (PBS, Tween 20 0.1%) with a plate washer and saturated with Casein 5% (Sigma) in PBS for 90 minutes at room temperature (25±1° C.). […] The resulting solution was then mixed and added to the plates. The plates were washed 3 times as described previously. […] The plates were incubated for 90 minutes at room temperature (25±1° C.). The plates were then washed. PolyHRP-Streptavidin was then diluted in dilution buffer and added to the plates. The plates were incubated an additional 90 minutes at room temperature (25±1° C.). Plates were washed 3 times as described previously and the substrate (TMB, Pierce Thermo-Scientific) was added in the plate for 10 minutes. The reaction was stopped using an acidic solution and the plates were read at 450-630 nm and the resulting percent inhibition was calculated.

human CD40L [7] = target: T1, human CD40L; assay: cell-based or functional assay; remark: listed apart in the source

Binder	EC50 (human CD40L [1]) [nM]	% Positive [2] [%]	MFI [2] [MFI]	further results
stefin A protein variant clone 233 (designed binder) MIPGGLSEAKPATPEIQEIVDKVKPQLEEKTGETYGKLEAVQYKTQVVLQDQWPWRDGTNYYIKVRAGDNKYMHLKVFKSLTYGKKWYSWEDLVLTGYQVDKNKDDELTGF	3.07	–	–	–
stefin A protein variant clone 227 (designed binder) MIPGGLSEAKPATPEIQEIVDKVKPQLEEKTGETYGKLEAVQYKTQVVHDVFYDQKAGTNYYIKVRAGDNKYMHLKVFKSLKWWYRIGNPEDLVLTGYQVDKNKDDELTGF	12.4	–	–	–
stefin A protein variant clone 230 (designed binder) MIPGGLSEAKPATPEIQEIVDKVKPQLEEKTGETYGKLEAVQYKTQVVHYYVHYNDQGTNYYIKVRAGDNKYMHLKVFKSLWGENLFAKWEDLVLTGYQVDKNKDDELTGF	0.67	98.8	8990	Kd (human CD40L [3]): 8.15 nM; koff (human CD40L [3]): 0.000975 s⁻¹; kon (human CD40L [3]): 120000 M⁻¹ s⁻¹; EC50 (HEK-Blue cell-based assay, % inhibition) (human CD40L [4]): 608 nM; EC50 (HEK-Blue CD40 reporter cells, SEAP, OD 640 nm, hCD40L 0.8 nM) (human CD40L [5]): 11.6 nM
stefin A protein variant clone 229 (designed binder) MIPGGLSEAKPATPEIQEIVDKVKPQLEEKTGETYGKLEAVQYKTQVVQYKIITWWSGTNYYIKVRAGDNKYMHLKVFKSLVYKNKRGGHEDLVLTGYQVDKNKDDELTGF	15.3	–	–	–
stefin A protein variant clone 231 (designed binder) MIPGGLSEAKPATPEIQEIVDKVKPQLEEKTGETYGKLEAVQYKTQVVYYQIITWWQGTNYYIKVRAGDNKYMHLKVFKSLGIRKKQQQREDLVLTGYQVDKNKDDELTGF	6.12	–	–	–
stefin A protein variant clone 243 (designed binder) MIPGGLSEAKPATPEIQEIVDKVKPQLEEKTGETYGKLEAVQYKTQVVFTYQISYTVGTNYYIKVRAGDNKYMHLKVFKSLRWRYPARKPEDLVLTGYQVDKNKDDELTGF	57.5	98.3	4400	–
clone-230 DT (trimer with a rigid linker) (designed binder) IPGGLSEAKPATPEIQEIVDKVKPQLEEKTGETYGKLEAVQYKTQVVHYYVHYNDQGTNYYIKVRAGDNKYMHLKVFKSLWGENLFAKWEDLVLTGYQVDKNKDDELTGFAEAAAKEAAAKEAAAKEAAAKEAAAKEAAAKMIPGGLSEAKPATPEIQEIVDKVKPQLEEKTGETYGKLEAVQYKTQVVHYYVHYNDQGTNYYIKVRAGDNKYMHLKVFKSLWGENLFAKWEDLVLTGYQVDKNKDDELTGFAEAAAKEAAAKEAAAKEAAAKEAAAKEAAAKMIPGGLSEAKPATPEIQEIVDKVKPQLEEKTGETYGKLEAVQYKTQVVHYYVHYNDQGTNYYIKVRAGDNKYMHLKVFKSLWGENLFAKWEDLVLTGYQVDKNKDDELTGF	–	–	–	IC50 (read off the curve) (human CD40L [6]): ~4 nM; IC50 (read off the curve) (human CD40L [7]): ~2 nM
clone-230 DS (tetramer with a rigid linker) (designed binder) IPGGLSEAKPATPEIQEIVDKVKPQLEEKTGETYGKLEAVQYKTQVVHYYVHYNDQGTNYYIKVRAGDNKYMHLKVFKSLWGENLFAKWEDLVLTGYQVDKNKDDELTGFAEAAAKEAAAKEAAAKEAAAKEAAAKEAAAKMIPGGLSEAKPATPEIQEIVDKVKPQLEEKTGETYGKLEAVQYKTQVVHYYVHYNDQGTNYYIKVRAGDNKYMHLKVFKSLWGENLFAKWEDLVLTGYQVDKNKDDELTGFAEAAAKEAAAKEAAAKEAAAKEAAAKEAAAKMIPGGLSEAKPATPEIQEIVDKVKPQLEEKTGETYGKLEAVQYKTQVVHYYVHYNDQGTNYYIKVRAGDNKYMHLKVFKSLWGENLFAKWEDLVLTGYQVDKNKDDELTGFAEAAAKEAAAKEAAAKEAAAKEAAAKEAAAKMIPGGLSEAKPATPEIQEIVDKVKPQLEEKTGETYGKLEAVQYKTQVVHYYVHYNDQGTNYYIKVRAGDNKYMHLKVFKSLWGENLFAKWEDLVLTGYQVDKNKDDELTGF	–	–	–	IC50 (read off the curve) (human CD40L [6]): ~2 nM; IC50 (read off the curve) (human CD40L [7]): ~0.6 nM

Now from value to binder, other results behind:

EC50 (human CD40L [1]) [nM]	% Positive [2] [%]	MFI [2] [MFI]	Binder	further results
45.6	–	–	stefin A protein variant clone 244 (designed binder) MIPGGLSEAKPATPEIQEIVDKVKPQLEEKTGETYGKLEAVQYKTQVVRENWYGEFAGTNYYIKVRAGDNKYMHLKVFKSLLYIYRHPNYEDLVLTGYQVDKNKDDELTGF	–
26.4	97.9	7050	stefin A protein variant clone 261 (designed binder) MIPGGLSEAKPATPEIQEIVDKVKPQLEEKTGETYGKLEAVQYKTQVVVDQVWSENAGTNYYIKVRAGDNKYMHLKVFKSLPYLWRKHAVEDLVLTGYQVDKNKDDELTGF	–
–	98.1	9620	stefin A protein variant clone 248 (designed binder) MIPGGLSEAKPATPEIQEIVDKVKPQLEEKTGETYGKLEAVQYKTQVVYDELYHEKAGTNYYIKVRAGDNKYMHLKVFKSLEYKFRNLEEDLVLTGYQVDKNKDDELTGF	–
–	98.4	8540	stefin A protein variant clone 270 (designed binder) MIPGGLSEAKPATPEIQEIVDKVKPQLEEKTGETYGKLEAVQYKTQVVLDGLYHVNSGTNYYIKVRAGDNKYMHLKVFKSLFYYYRSEPTEDLVLTGYQVDKNKDDELTGF	–
17.3	–	–	stefin A protein variant clone 246 (designed binder) MIPGGLSEAKPATPEIQEIVDKVKPQLEEKTGETYGKLEAVQYKTQVVHIPALKVHAGTNYYIKVRAGDNKYMHLKVFKSLPYWYRHDQEEDLVLTGYQVDKNKDDELTGF	–
–	98.8	9890	stefin A protein variant clone 247 (designed binder) MIPGGLSEAKPATPEIQEIVDKVKPQLEEKTGETYGKLEAVQYKTQVVHHAYAAVYVGTNYYIKVRAGDNKYMHLKVFKSLPYWYRKYPDEDLVLTGYQVDKNKDDELTGF	Kd (human CD40L [3]): 3.74 nM; koff (human CD40L [3]): 0.00207 s⁻¹; kon (human CD40L [3]): 553000 M⁻¹ s⁻¹; EC50 (HEK-Blue cell-based assay, % inhibition) (human CD40L [4]): 1190 nM; EC50 (HEK-Blue CD40 reporter cells, SEAP, OD 640 nm, hCD40L 0.8 nM) (human CD40L [5]): 101 nM
